Measured values taken from the Immune Epitope Database (IEDB).

Assays:
HLA-A*01:01 = assay: IEDB peptide-MHC binding, purified MHC/direct/fluorescence; filed as Kd, often an IC50 or EC50 that approximates it; ≥ and ≤ were set here for values at or beyond the usual limits of such assays
HLA-A*69:01 [1] = assay: as above
HLA-A*02:01 [2] = assay: as above
HLA-B*08:01 [3] = assay: as above; settings: source organism: Bacillus licheniformis
HLA-A*31:01 [4] = assay: as above; settings: source organism: Bacillus licheniformis
HLA-A*26:01 [5] = assay: as above; settings: source organism: Bacillus licheniformis
HLA-B*27:05 = assay: as above
HLA-B*15:01 = assay: as above
HLA-A*11:01 [6] = assay: as above
HLA-B*58:01 = assay: as above
HLA-B*07:02 = assay: as above
HLA-A*03:01 [7] = assay: as above
HLA-B*40:01 = assay: as above
HLA-B*15:02 = assay: IEDB peptide-MHC binding, purified MHC/competitive/fluorescence; filed as Kd, often an IC50 or EC50 that approximates it; ≥ and ≤ were set here for values at or beyond the usual limits of such assays; settings: source organism: Bacillus licheniformis
HLA-A*68:02 = assay: as above; settings: source organism: Human immunodeficiency virus 1
HLA-A*69:01 [8] = assay: as above; settings: source organism: Human immunodeficiency virus 1
HLA-A*02:01 [9] = assay: as above; settings: source organism: Human immunodeficiency virus 1
HLA-B*08:01 [10] = assay: as above; settings: source organism: Human immunodeficiency virus 1
HLA-B*08:02 = assay: as above; settings: source organism: Human immunodeficiency virus 1
HLA-A*31:01 [11] = assay: as above; settings: source organism: Human immunodeficiency virus 1
HLA-A*02:06 [12] = assay: as above; settings: source organism: Human immunodeficiency virus 1
HLA-A*26:01 [13] = assay: as above; settings: source organism: Human immunodeficiency virus 1
HLA-A*11:01 [14] = assay: as above; settings: source organism: Human immunodeficiency virus 1
HLA-A*26:03 = assay: as above; settings: source organism: Human immunodeficiency virus 1
HLA-A*03:01 [15] = assay: as above; settings: source organism: Human immunodeficiency virus 1
HLA-A*02:03 [16] = assay: as above; settings: source organism: Human immunodeficiency virus 1
HLA-A*30:01 [17] = assay: as above; settings: source organism: Human immunodeficiency virus 1
HLA-A*02:19 = assay: IEDB peptide-MHC binding, purified MHC/direct/fluorescence; filed as Kd, often an IC50 or EC50 that approximates it; ≥ and ≤ were set here for values at or beyond the usual limits of such assays; settings: source organism: Coxiella burnetii Q321
HLA-C*08:02 = assay: as above; settings: source organism: Coxiella burnetii RSA 493
HLA-A*24:02 = assay: as above; settings: source organism: Coxiella burnetii
HLA-A*02:06 [18] = assay: as above; settings: source organism: Coxiella burnetii Q321
HLA-A*02:12 = assay: as above; settings: source organism: Coxiella burnetii Q321
HLA-A*02:11 = assay: as above; settings: source organism: Coxiella burnetii Q321
HLA-C*12:03 = assay: as above; settings: source organism: Coxiella burnetii RSA 493
HLA-B*44:02 = assay: as above
HLA-A*02:03 [19] = assay: as above; settings: source organism: Coxiella burnetii Q321
HLA-A*02:50 [20] = assay: IEDB peptide-MHC binding, purified MHC/competitive/fluorescence; filed as Kd, often an IC50 or EC50 that approximates it; ≥ and ≤ were set here for values at or beyond the usual limits of such assays; settings: source organism: Coxiella burnetii RSA 493
HLA-B*57:01 = assay: IEDB peptide-MHC binding, purified MHC/direct/fluorescence; filed as Kd, often an IC50 or EC50 that approximates it; ≥ and ≤ were set here for values at or beyond the usual limits of such assays; settings: source organism: Francisella tularensis subsp. tularensis FSC033
HLA-B*18:01 = assay: as above; settings: source organism: Francisella tularensis subsp. tularensis FSC033
HLA-A*02:50 [21] = assay: as above; settings: source organism: Francisella tularensis subsp. tularensis FSC033
HLA-A*29:02 = assay: as above; settings: source organism: Francisella tularensis subsp. tularensis FSC033
HLA-A*30:01 [22] = assay: as above; settings: source organism: Francisella tularensis subsp. tularensis FSC033
HLA-B*51:01 = assay: as above; settings: source organism: Francisella tularensis subsp. tularensis FSC033
[23] = source organism: Bacillus licheniformis
[24] = source organism: Coxiella burnetii
[25] = source organism: Francisella tularensis subsp. tularensis FSC033
[26] = source organism: Francisella tularensis subsp. holarctica OSU18

With VQIPEKKCF the Kd (HLA-A*01:01; [23]) was ≥ 20 µM, the Kd (HLA-A*69:01 [1]; [23]) was ≥ 20 µM and the Kd (HLA-A*02:01 [2]; [23]) was ≥ 20 µM. The Kd (HLA-B*08:01 [3]) was ≥ 20 µM, the Kd (HLA-A*31:01 [4]) was ≥ 20 µM and the Kd (HLA-A*26:01 [5]) was ≥ 20 µM. The Kd (HLA-B*27:05; [23]) was ≥ 20 µM, the Kd (HLA-B*15:01; [23]) was 0.453 µM and the Kd (HLA-A*11:01 [6]; [23]) was ≥ 20 µM. For the same sequence, the Kd (HLA-B*58:01; [23]) was ≥ 20 µM, the Kd (HLA-B*07:02; [23]) was ≥ 20 µM and the Kd (HLA-A*03:01 [7]; [23]) was ≥ 20 µM. For the same sequence, the Kd (HLA-B*40:01; [23]) was ≥ 20 µM and the Kd (HLA-B*15:02) was ≥ 20 µM.
With VLYCVHQRV the Kd (HLA-A*68:02) was 0.223 µM, the Kd (HLA-A*69:01 [8]) was ≥ 20 µM and the Kd (HLA-A*02:01 [9]) was 0.0098 µM. For the same sequence, the Kd (HLA-B*08:01 [10]) was ≥ 20 µM, the Kd (HLA-B*08:02) was ≥ 20 µM and the Kd (HLA-A*31:01 [11]) was 11.9 µM. The Kd (HLA-A*02:06 [12]) was 0.0005 µM, the Kd (HLA-A*26:01 [13]) was ≥ 20 µM and the Kd (HLA-A*11:01 [14]) was 10.7 µM. The Kd (HLA-A*26:03) was ≥ 20 µM, the Kd (HLA-A*03:01 [15]) was ≥ 20 µM and the Kd (HLA-A*02:03 [16]) was 0.0047 µM. For the same sequence, the Kd (HLA-A*30:01 [17]) was 1.86 µM.
In the case of YMHGSIHEV, the Kd (HLA-A*02:19) is reported as 0.007 µM, the Kd (HLA-C*08:02) is reported as ≥ 20 µM and the Kd (HLA-A*01:01; [24]) is reported as ≥ 20 µM. For the same sequence, the Kd (HLA-A*24:02) was ≥ 20 µM, the Kd (HLA-A*69:01 [1]; [24]) was 0.0407 µM and the Kd (HLA-A*02:01 [2]; [24]) was 0.057 µM. For the same sequence, the Kd (HLA-A*02:06 [18]) was 0.002 µM, the Kd (HLA-A*02:12) was 0.007 µM and the Kd (HLA-B*27:05; [24]) was ≥ 20 µM. The Kd (HLA-A*02:11) was 0.002 µM, the Kd (HLA-B*15:01; [24]) was 0.118 µM and the Kd (HLA-A*11:01 [6]; [24]) was ≥ 20 µM. The Kd (HLA-B*58:01; [24]) was ≥ 20 µM, the Kd (HLA-B*07:02; [24]) was ≥ 20 µM and the Kd (HLA-C*12:03) was 0.026 µM. For the same sequence, the Kd (HLA-B*44:02; [24]) was ≥ 20 µM, the Kd (HLA-A*03:01 [7]; [24]) was ≥ 20 µM and the Kd (HLA-A*02:03 [19]) was 0.002 µM. The Kd (HLA-B*40:01; [24]) was ≥ 20 µM and the Kd (HLA-A*02:50 [20]) was ≤ 0.0001 µM.
In the case of ETLDVFGPI, the Kd (HLA-A*01:01; [25]) is reported as ≥ 20 µM, the Kd (HLA-B*57:01) is reported as ≥ 20 µM and the Kd (HLA-A*69:01 [1]; [26]) is reported as 0.0004 µM. For the same sequence, the Kd (HLA-A*02:01 [2]; [26]) was ≥ 20 µM, the Kd (HLA-B*18:01) was ≥ 20 µM and the Kd (HLA-A*02:50 [21]) was ≥ 20 µM. The Kd (HLA-B*15:01; [25]) was ≥ 20 µM, the Kd (HLA-A*29:02) was ≥ 20 µM and the Kd (HLA-B*58:01; [25]) was ≥ 20 µM. The Kd (HLA-B*07:02; [25]) was ≥ 20 µM, the Kd (HLA-B*44:02; [25]) was ≥ 20 µM and the Kd (HLA-A*30:01 [22]) was ≥ 20 µM. For the same sequence, the Kd (HLA-B*51:01) was ≥ 20 µM and the Kd (HLA-B*40:01; [25]) was ≥ 20 µM.
